# Patent US20070129537A1 (University of California, published 2007)
# Ends that are not written are not given here.
# Biological target: T1, natural proline-rich peptide ligand C3G, PPPALPPKKR (peptide SEQ ID NO: 11)
# T1 peptide: PPPALPPKKR-NH2
# Assay: fluorescence-based titration (excitation 300 nm, emission 348 nm), 25 C, 0.5 uM protein, 1:1 complex assumed
# Description: The ligated product is marked with an asterisk. […] The ligation product was by far the main product and could be easily isolated by semipreparative HPLC. Referring to FIG. 6B, characterization of the product by ES-MS confirmed the identity of the SH3 ligated domain. The ligated SH3 domain was readily purified by HPLC and refolded by flash dilution in 20 mM sodium phosphate, 100 mM NaCl at pH 7.2. The ligand binding activity of the synthetic SH3 domain was evaluated using a fluorescence-based titration assay. […] Referring to FIG. 6C, the equilibrium dissociation constant for binding of the synthetic SH3 domain to the natural proline-rich peptide ligand C3G i.e., […] (peptide SEQ ID NO: 11), was 0.9 μM. […]
# Fluorescence-based Ligand Binding Assay. The equilibrium dissociation binding constant of synthetic SH3 domain for ligand SEQ ID NO: 11 was obtained using a fluorescence-based titration assay. […] Excitation was at 300 nm with a 2.5 nm slit and the fluorescence emission was monitored at 348 nm through a 5 nm slit. […] The dissociation constant was determined by changes in the fluorescence of the protein solution upon addition of the corresponding peptide ligand at defined concentrations; calculations were made assuming formation of a 1:1 complex. […]
binder,measurement,value
"synthetic c-Crk N-terminal SH3 domain obtained by native chemical ligation of peptide thioester SEQ ID NO: 9 and peptide SEQ ID NO: 10 (other, N-terminal acetyl (Ac-AEYV...); C-terminal amide implied (peptide SEQ ID NO: 10 made on Rink-amide resin); Cys introduced at the N-terminus of SEQ ID NO: 10 (ligation site); the -SEt thioester of SEQ ID NO: 9 is lost on ligation, used at 0.5 uM in 20 mM sodium phosphate, 100 mM NaCl, pH 7.2; ESMS found 6894.1 Da (calculated 6891.7 Da); also called ligated SH3 domain; synthetic SH3 domain) AEYVRALFDFNGNDEEDLPFKKGCILRIRDKPEEQWWNAEDSEGKRGMIPVPYVEKYG",Kd,900 nM
